{
  "source": "paper PMC2139968",
  "about": "(The Journal of Cell Biology, 1997)",
  "binders": {"B1": {"name": "His6-neurabin (natural protein)", "chain": "not shown"}},
  "molecular_target": "F-actin (rabbit, UniProt P68135 1-377)",
  "assay": "co-sedimentation",
  "data": [
    {"binder": "B1", "values": [
      {"measurement": "stoichiometry N", "value": "~8 actin molecules per His6-neurabin molecule"}
    ]}
  ]
}
